According to US20170010270A1 (Chugai, published 2017):
Each block holds one binder with its values, some of them ahead of it.

Columns and labels:
[1] = target: T1, GPC3 peptide, amino acid position 161-190 (SEQ ID NO: 9) (human); test: ELISA on immobilised peptide
T1 construct: synthetic 30-residue peptide of GPC3
T1 peptide: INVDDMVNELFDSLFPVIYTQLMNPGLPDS
Description: (§1) In order to identify more detailed epitopes for the antibodies, the amino acid sequence of GPC3 was divided into peptides of 30 residues containing 10-residue overlaps, and the corresponding peptides were synthesized (SEQ ID NOs: 1 to 29 in Table 2). Each peptide thus synthesized was dissolved at a concentration of 1 mg/mL in dimethyl sulfoxide and then diluted to 1 μg/mL with PBS. The diluted peptide solution was added at 70 μL/well to a 96-well plate and immobilized thereon at room temperature for 1 hour. After removal of unimmobilized peptides, 20% Blocking-one (Nacalai Tesque, Inc.) was added thereto as a blocking buffer solution at 200 μL/well, and the plate was blocked overnight. After removal of the blocking buffer solution, each well was washed with TBS-T three times, and each antibody diluted to 2 μg/mL with a blocking buffer was then added thereto at 70 μL/well. One hour later, the antibody was removed, and each well was washed three times by the addition of TBS-T at 200 μL/well. An HRP-bound anti-mouse antibody was added at 70 μL/well to each well and reacted therewith for 1 hour. After removal of the antibody, each well was washed with 200 μL/well of TBS-T three times, and a chromogenic reagent ABTS Peroxidase Substrate System (1 component, KPL, Kirkegaard & Perry Laboratories, Inc.) was then added thereto at 70 μL/well and reacted at room temperature for […] to develop color. The reaction was terminated by the addition of 1% SDS at 70 μL/well, and the absorbance at 405 nm was measured using a plate reader.

[2] = target: T2, GPC3 peptide, amino acid position 501-530 (SEQ ID NO: 26) (human); test: ELISA on immobilised peptide
T2 construct: synthetic 30-residue peptide of GPC3
T2 peptide: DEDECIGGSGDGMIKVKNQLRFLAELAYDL
Description: as §1

[3] = target: T3, GPC3 peptide, amino acid position 1-30 (SEQ ID NO: 1) (human); test: ELISA on immobilised peptide
T3 construct: synthetic 30-residue peptide of GPC3
T3 peptide: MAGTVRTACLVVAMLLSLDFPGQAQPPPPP
Description: as §1

[4] = target: T4, GPC3 peptide, amino acid position 341-370 (SEQ ID NO: 18) (human); test: ELISA on immobilised peptide
T4 construct: synthetic 30-residue peptide of GPC3
T4 peptide: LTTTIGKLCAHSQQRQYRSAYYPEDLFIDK
Description: as §1

[5] = target: T5, GPC3 peptide, amino acid position 551-580 (SEQ ID NO: 29) (human); test: ELISA on immobilised peptide
T5 construct: synthetic 30-residue peptide of GPC3
T5 peptide: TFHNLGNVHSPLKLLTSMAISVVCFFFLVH
Description: as §1

[6] = target: T6, GPC3 peptide, amino acid position 401-430 (SEQ ID NO: 21) (human); test: ELISA on immobilised peptide
T6 construct: synthetic 30-residue peptide of GPC3
T6 peptide: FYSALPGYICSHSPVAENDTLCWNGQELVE
Description: as §1

[7] = target: T7, AW3, C-terminally His-tagged recombinant product of positions 1 to 218 of GPC3 (human, UniProt P51654 25-218); test: Western blot of CHO cell pellets, reducing
T7 construct: Expressed in CHO cells; cell pellets used in reducing Western blot; Construct is stated from position 1; not shown: C-terminal His tag
T7 sequence (P51654 25-218): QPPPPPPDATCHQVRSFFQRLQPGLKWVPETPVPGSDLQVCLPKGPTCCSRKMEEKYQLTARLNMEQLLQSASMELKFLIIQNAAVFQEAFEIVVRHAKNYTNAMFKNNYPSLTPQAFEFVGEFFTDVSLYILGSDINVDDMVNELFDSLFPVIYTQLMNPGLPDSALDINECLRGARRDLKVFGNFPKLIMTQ

[8] = target: T8, AW2, C-terminally His-tagged recombinant product of positions 1 to 196 of GPC3 (human, UniProt P51654 25-196); test: Western blot of CHO cell pellets, reducing
T8 construct: Expressed in CHO cells; cell pellets used in reducing Western blot; Construct is stated from position 1; also called AW2 (1-196); not shown: C-terminal His tag
T8 sequence (P51654 25-196): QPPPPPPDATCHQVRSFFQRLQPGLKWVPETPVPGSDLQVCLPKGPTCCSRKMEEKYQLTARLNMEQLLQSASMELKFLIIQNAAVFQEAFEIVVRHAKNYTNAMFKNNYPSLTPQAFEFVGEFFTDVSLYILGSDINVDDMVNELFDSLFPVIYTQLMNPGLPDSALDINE

[9] = target: T9, AW5, C-terminally His-tagged recombinant product of positions 1 to 357 of GPC3 (human, UniProt P51654 25-357); test: Western blot of CHO cell pellets, reducing
T9 construct: Expressed in CHO cells; cell pellets used in reducing Western blot; Construct is stated from position 1; also called AW5 (1-357); not shown: C-terminal His tag
T9 sequence (P51654 25-357): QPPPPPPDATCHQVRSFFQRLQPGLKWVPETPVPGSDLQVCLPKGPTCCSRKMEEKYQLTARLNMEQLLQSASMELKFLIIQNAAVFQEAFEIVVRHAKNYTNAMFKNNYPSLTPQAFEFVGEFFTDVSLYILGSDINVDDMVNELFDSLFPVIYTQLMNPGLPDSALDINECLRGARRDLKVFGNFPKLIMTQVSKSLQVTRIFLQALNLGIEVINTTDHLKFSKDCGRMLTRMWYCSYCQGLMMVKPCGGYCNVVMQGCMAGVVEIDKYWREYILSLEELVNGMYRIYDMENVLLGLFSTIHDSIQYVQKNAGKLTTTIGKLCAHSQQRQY

binding result [1]: no binding (tested: 2 µg/mL) | binding result [2]: no binding (tested: 2 µg/mL) | binding result [3]: no binding (tested: 2 µg/mL) | binding result [4]: no binding (tested: 2 µg/mL) | binding result [5]: no binding (tested: 2 µg/mL) | binding result [6]: no binding (tested: 2 µg/mL) | binding result [7]: no binding | binding result [8]: no binding
B1: GT607 antibody (antibody, IgG1, V domains shown)
VH: EVQLVESGGDVVRPGGSLKLSCAASGFTFSSYGMSWVRQLPDKRLEWVASVGNGGSYRYYPENLKGRFTISRDNTKNTLYLQISGLKSEDTAIYYCARRGAFPYFDVWGAGTTVTVSS
VL: QIVLTQSPAIMSASPGEKVTLACSASSSVTYMHWYQQKSGTSPKRWIYETSKLASGVPPRFSGSGSGTSYSLTISTMEAEDAATYYCQQWSSNPLTFGAGTKLELKR

binding result [1]: no binding (tested: 2 µg/mL) | binding result [2]: no binding (tested: 2 µg/mL) | binding result [3]: no binding (tested: 2 µg/mL) | binding result [4]: no binding (tested: 2 µg/mL) | binding result [5]: no binding (tested: 2 µg/mL) | binding result [6]: no binding (tested: 2 µg/mL) | binding result [9]: no binding | binding result [7]: no binding | binding result [8]: no binding
B2: GT165 antibody (antibody, IgG1, V domains shown)
VH: QVQLQQSGAELVGPGASVKISCKAFGYTFTNHHINWVKQRPGQGLDWIGYINPYNDYTNYNQKFKGKATLTVDKSSSTAYMELSSLTSEDSAVYYCARSDPAWFAYWGQGTLVTVSA
VL: DIQMTQSPSSLSASLGGKVTITCKASQDINKNIAWYQHKPGKGPRLLIWYTYTLQPGIPSRFSGSGSGRDYSFSISNLEPEDIATYYCLQYDNLPFTFGTGTKLEIKR

binding result [1]: no binding (tested: 2 µg/mL) | binding result [2]: no binding (tested: 2 µg/mL) | binding result [3]: no binding (tested: 2 µg/mL) | binding result [4]: no binding (tested: 2 µg/mL) | binding result [5]: no binding (tested: 2 µg/mL) | binding result [6]: no binding (tested: 2 µg/mL) | binding result [7]: no binding | binding result [8]: no binding
B3: GT114 antibody (antibody, IgG1, V domains shown)
VH: DVQLQESGPGLVKPSQSLSLTCTVTGYSITSDSAWNWIRQFPGNKLEWMAYIMYSGITSYNPSLKSRISITRDTAKNQFFLQLNSVTTEDSATYYCSRGYWYFDVWGAGTTVTVSS
VL: QIVLTQSPAIMSASLGEEITLTCSASSSVSYMHWYQQKSGTSPKLLIYSTSILASGVPSRFSGSGSGTFYSLTISSVEAEDAADYYCLQWITYRTFGGGTKLEIKR
